{"source": "patent US6534267", "about": "(dated 2003)", "proteins": {"B1": {"name": "25-kDa Smac (second mitochondria-derived activator of caspase), native mature protein from HeLa cells (other)", "chain": "AVPIAQKSEPHSLSSEALMRRAVSLVTDSTSTFLSQTTYALIEAITEYTKAVYTLTSLYRQYTSLLGKMNSEEEDEVWQVIIGARAEMTSKHQEYLKLETTWMTAVGLSEMAAEAAYQTGADQASITARNHIQLVKLQVEEVHQLSRKAETKLAEAQIEELRQKTQEEGEERAESEQEAYLRED", "notes": "The HeLa protein is also about 25 kDa; Gel filtration points to a homotetramer; also called 25-kDa protein; native Smac"}}, "target": "the molecule itself", "assay": "gel filtration of purified native Smac (self-association)", "data": [{"protein": "B1", "values": [{"measurement": "binding result", "value": "binds"}]}]}
